Measurements from PMC6309520.
Read-outs that look alike come from different tables or passages of the source.

Columns and labels:
Assay in all cases: Michaelis-Menten kinetics
[1] = substrate: Nc1ncnc2c1ncn2[C@@H]1O[C@H](COP(=O)(O)OP(=O)(O)OC[C@H]2O[C@H](Oc3ccc([N+](=O)[O-])cc3)[C@H](O)[C@@H]2O)[C@@H](O)[C@H]1O; type: biochemical, Homo sapiens; conditions: Mg2+ ([…] MgCl2 in assay buffer)
[2] = substrate: Nc1ncnc2c1ncn2[C@@H]1O[C@H](COP(=O)(O)OP(=O)(O)OC[C@H]2O[C@H](Oc3ccc4c(C(F)(F)F)cc(=O)oc4c3)[C@H](O)[C@@H]2O)[C@@H](O)[C@H]1O; type: biochemical, Homo sapiens
[3] = substrate: Nc1ncnc2c1ncn2[C@@H]1O[C@H](COP(=O)(O)OP(=O)(O)OC[C@H]2O[C@H](Oc3ccc([N+](=O)[O-])cc3)[C@H](O)[C@@H]2O)[C@@H](O)[C@H]1O; type: biochemical, Tetrahymena thermophila
[4] = substrate: Nc1ncnc2c1ncn2[C@@H]1O[C@H](COP(=O)(O)OP(=O)(O)OC[C@H]2O[C@H](Oc3ccc4c(C(F)(F)F)cc(=O)oc4c3)[C@H](O)[C@@H]2O)[C@@H](O)[C@H]1O; type: biochemical, Tetrahymena thermophila

B1: ARH3 (ADP-ribosyl hydrolase 3, ADPRHL2) (Homo sapiens) (protein)
chain: MAAAAMAAAAGGGAGAARSLSRFRGCLAGALLGDCVGSFYEAHDTVDLTSVLRHVQSLEPDPGTPGSERTEALYYTDDTAMARALVQSLLAKEAFDEVDMAHRFAQEYKKDPDRGYGAGVVTVFKKLLNPKCRDVFEPARAQFNGKGSYGNGGAMRVAGISLAYSSVQDVQKFARLSAQLTHASSLGYNGAILQALAVHLALQGESSSEHFLKQLLGHMEDLEGDAQSVLDARELGMEERPYSSRLKKIGELLDQASVTREEVVSELGNGIAAFESVPTAIYCFLRCMEPDPEIPSAFNSLQRTLIYSISLGGDTDTIATMAGAIAGAYYGMDQVPESWQQSCEGYEETDILAQSLHRVFQKS
B1 showed a Km [1] of 3.2 ± 0.6 µM, a Vmax [1] of 1.7 µmol/min/mg and a Km ([2]; Mg2+ ([…] MgCl2 in assay buffer)) of 6.3 ± 0.2 µM. The Vmax ([2]; Mg2+ ([…] MgCl2 in assay buffer)) was 1.61 µmol/min/mg.

B2: PARG (poly(ADP-ribose) glycohydrolase) (Homo sapiens) (protein)
chain: MNAGPGCEPCTKRPRWGAATTSPAASDARSFPSRQRRVLDPKDAHVQFRVPPSSPACVPGRAGQHRGSATSLVFKQKTITSWMDTKGIKTAESESLDSKENNNTRIESMMSSVQKDNFYQHNVEKLENVSQLSLDKSPTEKSTQYLNQHQTAAMCKWQNEGKHTEQLLESEPQTVTLVPEQFSNANIDRSPQNDDHSDTDSEENRDNQQFLTTVKLANAKQTTEDEQAREAKSHQKCSKSCDPGEDCASCQQDEIDVVPESPLSDVGSEDVGTGPKNDNKLTRQESCLGNSPPFEKESEPESPMDVDNSKNSCQDSEADEETSPGFDEQEDGSSSQTANKPSRFQARDADIEFRKRYSTKGGEVRLHFQFEGGESRTGMNDLNAKLPGNISSLNVECRNSKQHGKKDSKITDHFMRLPKAEDRRKEQWETKHQRTERKIPKYVPPHLSPDKKWLGTPIEEMRRMPRCGIRLPLLRPSANHTVTIRVDLLRAGEVPKPFPTHYKDLWDNKHVKMPCSEQNLYPVEDENGERTAGSRWELIQTALLNKFTRPQNLKDAILKYNVAYSKKWDFTALIDFWDKVLEEAEAQHLYQSILPDMVKIALCLPNICTQPIPLLKQKMNHSITMSQEQIASLLANAFFCTFPRRNAKMKSEYSSYPDINFNRLFEGRSSRKPEKLKTLFCYFRRVTEKKPTGLVTFTRQSLEDFPEWERCEKPLTRLHVTYEGTIEENGQGMLQVDFANRFVGGGVTSAGLVQEEIRFLINPELIISRLFTEVLDHNECLIITGTEQYSEYTGYAETYRWSRSHEDGSERDDWQRRCTEIVAIDALHFRRYLDQFVPEKMRRELNKAYCGFLRPGVSSENLSAVATGNWGCGAFGGDARLKALIQILAAAAAERDVVYFTFGDSELMRDIYSMHIFLTERKLTVGDVYKLLLRYYNEECRNCSTPGPDIKLYPFIYHAVESCAETADHSGQRTGT
Protein B2 has a Km [2] of 66.2 ± 15 µM and a Vmax [2] of 0.84 µmol/min/mg.

B3: ttPARG (T. thermophila PARG) (Tetrahymena thermophila) (protein)
chain: MIEAEKQENKKIQDYQFPLPQKNSELWIIQKKTLQDLSSGKQKLDSFQSLESILEILRDSKNQNDEKYFNLKAVFEQLDKEEQTYFLEQFIPKICQLVLKIKKKQLKNQIPKESKIYEAAFSREEISYYVSCMFLCILKDQDRKIYKDFRLIYLKDLVQQINIRRQEKIKCFYEYLKQALDFSEKESKEVVIFQRINCGQLEDYENWVDKLKAIKLKNVQLTDDKLIEDFPGTLQVDFANCDIGGGILGNGLVQEEIRFCVCPEMLVSLLVFDQSMEANEVIIMKGIKQYSDYQGYSNSFRFVKMGNSKIQKQKRNNPQTILAIDALCFNSSDNQFSEVNVSRELNKSYMGFKQEDQLKTISTGKWGCGAFLGVFDLKFAIQWIASSRSNKKMIICTFQDEQTTKQIQQVFDLYKQKNASIFLKLVMDYPNSKYMEDYTLLEYLIELGKEKATSKNS
Protein B3 has a Km [3] of 210 ± 10 µM, a Vmax [3] of 16.9 µmol/min/mg and a Km [4] of 210 ± 13 µM. It also gave a Vmax [4] of 28.6 µmol/min/mg.
